According to the supplement of paper PMC9170038:

Each sequence was assayed on K4 kissing-loop RNA reporter (assay: apparent KD of K4 kissing-loop reporter; higher = weaker reporter binding). Settings: Eterna round: R107; input ligand: arginine 13.2 mM.
Procedure: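 RNA-MaP round R107: designed RNA switches with theophylline, tryptophan, arginine or FMN aptamers are transcribed on-chip within common flanks. They are titrated with a labelled K4 kissing-loop RNA reporter in RNA-MaP buffer (100 mM Tris pH 7.5, 80 mM KCl, 4 mM MgCl2), without ligand or with the indicated ligand. Median apparent KD per design.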
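Further: bound reporter read as fluorescence of individual clusters on recovered sequencing chips by microscopy, with normalized cluster intensities fitted with a binding model.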

Row | Sequence | apparent KD of K4 kissing-loop reporter [nM]
1 | AACGUUUUGAGAAGGAGCGCGUUCAGCAGUGAUGUUGCUUUACUUCAAUUUCUAGAUAAUUCGCAGGUAGGUCGCUCAAUACGUA [JR_Nu_ExcArginiB_Sub023] | 511
2 | UUAGUUGAAAGUGAUACCAGACGAGUGAAGGGAAGAAAUUAAGUUGGAGUGAUGUUCCGCGUCCCUUGGCAGCACUUUGUAAUUU [Exclusion Theophylline B GF 22] | 151
3 | UUUCGGUUCUGAGGAUAUUCGGACAAAUAUAGUGAUGUUGUAUAAGGAGGAGGGUGUUGGCAGUGCGGAGAAGGCAGACCACGAU [ExFMNB.X] | 720
4 | GGGUUGAACUGAAGGAGCGAGAAAUAGAAAGUAAGAAGAUAAGCUAGUGAUGUUAGAAAUUCUCAGGUAGGUCGCAGUAAGAAUU [V3] | 325
5 | CCCUCACGAGUGAUGUUCGUAGGGUACAGUCAGGAUAUCAUGCGGUUGAGAAGGGACAGAGAGGGCGGCGGCGGGUUGCUCAUCU [Isanausbe] | 217
6 | GAUAUAGUGAUGUUAUAUACUGAUAGACAACGAGGACCGGUACGGCCGCCACUCGAGAGGGUGAAAAUGAUGAUAAAAUAAUGAU [#02 K4 Tryptophan A Exclusion] | 318

Same assay, conditions: Eterna round: R107; input ligand: none

Row | Sequence | apparent KD of K4 kissing-loop reporter [nM]
7 | CAUAGACAAGUGAUGUUUGUCAUAACCGAAGGAGCGUCGUUGAAGACAGGUAGGUCGCGGAUUAAUUUAGAUUAUAUUCUUUUUA [JR_SSArginiA_Sub020] | 570
8 | GCAUCCAUGGCAGGAUAUAGGUUCGUGGAGUGAUGUUCCAUAGCCCGAGUGAUGUUCGUUAUCCACCUAGAAGGGCCAUGGAUGC [whbob_Ex_FMNB__2th212] | 246
9 | ACCCAAGCCCAUCGCGCAGUGAUGUUGUCGCGAGGACCGGUACGGCCGCCACUCGAUAGCAGUGGCAACGUCAUCAUAAUCGAUU [theeternabot_exclusion_KL_Trp_A_50] | 352
10 | UCGAAAUGCGUCUCCUAGUUACUCCGGGAAGGAGCGUGGAUAACCGCAGGUAGGUCGCCCGGAAGCCGGACCAGUGAUGUUGGUC [Exclusion Arginine A Gf 29] | 221
11 | GGUAGCAUGGCGGCCGCCACUCGCAUCACAGGCCAUUAACCGCCCUCGUAAAGUGAUGUUUUACAGAGGACCGGGCCAUGCUACC | 297
12 | UAAGAAUAAGUAGCAGUGAUGUUGCUACUACGAGGACCGGUACGGCCGCCACUCGAGUCCUCGAAACAUCACUGAACGAGGAAUA [(H,1)-(H,2)-(Trp1)-(Trp2)-(T)'-(H)'-(T)''] | 201
13 | UGAUACCAGGCGGCCGCCACUCCUACAGGUCAAAGACCUGUAGAACUGGUUUUUUAGUGAUGUUGGAGGACCGGGCCUGGUAUCU [FiskerMod 30 - Jieux - Exclusion - Tryptophan B] | 394
14 | UGGAGUUGACGAAAAGUCAACUCCUGAGAUACCAGUGACGAAAGUCACCCUUGGCAGCUCACUGCCAGUGAUGUUGGAACUAAAG [#02 K4 Theophylline A Same State] | 256
15 | AUUAUAUUGUGAAGGAGCGCGAAUAGCAGUGAUGUUGCUAUCAAACGAUAUAUUAUUUACACGCAGGUAGGUCGCACAAUAUAUA [JR_Nu_SSArginiB_Sub022] | 149
16 | UGCAUGCUUGGAGUGAUGUUCCAAGAUGAUACCAGUGCUUUUUUGCACCCUUGGCAGCGUCUGAUUGCAUGCACGUCGAAAGACG | 529
17 | GGUCCGCGGUCGGCCGCCACUGAACAAGACCAGUGAUGUUGGAUCUUCCAGUGCGUUGGCUUUAACAGGACCGGGACCGUGGAGC [Titia] | 145
18 | UGAUACCAGGCGGCCGCCACUCCCGCAGGUCAAAGACCUGCGAAGCUGGUUCUCCAGUGAUGUUGGAGGACCGGGCCUGGUAUCU [FiskerMod 26 - Jieux - Exclusion - Tryptophan B] | 152
19 | AACCCAUGACUGGAUACCAGACUAUACAUGCUGAGUGAUGUUUAGCGGAGUCAUCUCUCGGUCCCUUGGCAGCCAACGUCACGCG [theeternabot_sameState_KL_Theo_B_33] | 646
20 | UUGUUUUACUGAAGGAGCGGCAAUUGAUACGUAGAUAUAGUGAUGUUAUAUAAGAUAGAGAGCCAGGUAGGUCGCAGAUUUUUUU [ExArgB.V] | 144
21 | AAUAAGUGUCAGCGAGUGAUGUUCGACGAUACCAGCCUCGAUAGAGGCCCUUGGCAGCGUAACGCAUGCCAAACUGGCACAAUAA [#SwitchBubble 7 #K4Early] | 557
22 | GGUGUGCCAGUGAUGUUGGCAUAAACUGAAGGAGCGCGUGAAAACGCAGGUAGGUCGCAGAACCUUGCCAACUAUUUUAUUCACC [Ex Arginine A K4 25] | 176
23 | AUGGUGGAGGAGUGAUGUUCUUGGAGUAGGUAGGAUAUGAGUGAUGUUAGAAGGAUCGGAGUGAUGUUCCAGGUGGUUGUGUUGU [KL-SSFMN-A2] | 765
24 | AGUGAUGUUGUGUUAUGUUAGGGAAGUGAUCGAGGACCGGUACGGCCGCCACUCGAGUGAUGAGUGAGUGAUGUUUGUUUAGGGA [yytmullin] | 1610
25 | AAUUAAUGUAUAGAUUAUAUACAUUAAUCAGAGGAUAUGCAUUGUUGCAGAAGGCUGAAUGCAGUGAUGUUGCAAUGGAAAUUUA [JR_SSFMNA_Sub004] | 181
26 | UGGUUAAGCAGUGAUGUUGCAAGUAAUGAUACCAGUUAAGAAGAGAACCCUUGGCAGCAUAAAGUGCGCUCUGAUGAGUGUGCUU [whbob_SS_Theo_A_w54] | 240
27 | GAUGAAGAGUCGUUAGUUAGGGCUUUCGAUACCAGCGCCCGUCCACGCCCUUGGCAGCGAUUGAAAGAGUGAUGUUCUGUCAGGA [theeternabot_exclusion_KL_Theo_A_31] | 546
